Laboratory results from patent US20220411840A1, “High Efficiency Template-Free Enzymatic Synthesis of Polynucleotides” (DNA Script, priority 2019, published 2022).
Where a chain is given by its changes, count along the chain named. Numbers in names are those of the source.

B1: M55: ACT-TdT variant: SEQ ID NO: 1 with substitutions A17V+Q37E+D41R+L52F+G57E+M63R+S94R+G98E+A108V+S146E+K147R+Q149R+C173G+M184T+R207L+K209H+M210Q+G284L+E289A+R325V+E328K+N345E+R351K (protein)
chain: NSSPSPVPGSQNVPAPVVKKISQYACQRRTTLNNYNELFTRALDILAENDEFRENEESCLAFRRASSVLKSLPFPITSMKDTEGIPCLGDKVKRIIEEIIEDGESSEVKAVLNDERYKSFKLFTSVFGVGLKTAEKWFRMGFRTLERIRSDKSLRFTQMQKAGFLYYEDLVSGVNRPEAEAVSTLVKEAVVTFLPDALVTMTGGFRLGHQTGHDVDFLITSPEATEDEEQQLLHKVTDFWKQQGLLLYCDILESTFEKFKQPSRKVDALDHFQKCFLILKLDHLRVHSAKSGQQEGKGWKAIRVDLVMCPYDRRAFALLGWTGSVQFKRDLRRYATHERKMMLDEHALYDKTKRVFLEAESEEEIFAHLGLDYIEPWERNA
modifications: truncated mouse TdT
B2: M56: G-TdT variant: SEQ ID NO: 1 with substitutions A17V+Q37E+D41R+L52F+G57E+M63R+I76V+S94R+G98E+A108V+S146E+Q149R+C173G+M184T+R207L+K209H+F259E+Q261R+K265G+G284L+E289A+R325V+E328N+R351K (protein)
chain: B1 chain with I76V, R147K, Q210M, F259E, Q261R, K265G, K328N, E345N
modifications: truncated mouse TdT

Legend:
[1] = test system: polyT primer (5′-TTTTTTTTTTTTTTTTTTTT (20T), SEQ ID NO: 8); assay: Incorporation of 3′-O-azidomethyl nucleoside triphosphates (AM-dNTPs) by TdT variants on primer polyT in solution; type: biochemical; conditions: 1 uM primer, 2 uM TdT variant, 80 uM AM-dNTP, 10% DMSO, 5 min at 37° C.
[2] = test system: synGG primer (5′-TGTGAGAGTGAAATGAGG, SEQ ID NO: 7); assay: Incorporation of 3′-O-azidomethyl nucleoside triphosphates (AM-dNTPs) by TdT variants on primer synGG in solution; type: biochemical; conditions: 1 uM primer, 2 uM TdT variant, 80 uM AM-dNTP, 10% DMSO, 5 min at 37° C.

Molecule | Percentage of AM-dNTP Incorporation (percentage of extended primers) ([1]; AM-dNTP: A) [%] | Percentage of AM-dNTP Incorporation (percentage of extended primers) ([1]; AM-dNTP: C) [%] | Percentage of AM-dNTP Incorporation (percentage of extended primers) ([1]; AM-dNTP: G) [%] | Percentage of AM-dNTP Incorporation (percentage of extended primers) ([1]; AM-dNTP: T) [%] | Percentage of AM-dNTP Incorporation (percentage of extended primers) ([2]; AM-dNTP: A) [%] | Percentage of AM-dNTP Incorporation (percentage of extended primers) ([2]; AM-dNTP: C) [%] | Percentage of AM-dNTP Incorporation (percentage of extended primers) ([2]; AM-dNTP: G) [%] | Percentage of AM-dNTP Incorporation (percentage of extended primers) ([2]; AM-dNTP: T) [%]
B1 | 15 | 69 | 12 | 61 | 74 | 86 | 30 | 76
B2 | 0 | 27 | 15 | 52 | 4 | 68 | 65 | 71
